In PMC6331727:

Biological target: ADP-ribosylation factor-like protein 13B (Arl13b)
Assay: co-immunoisolation with paramagnetic beads, immunoblot quantification
Conditions: MDCK cells expressing Prom1 or K138Q; n = 3; parent: est. 0.53; read off a plot

Human Prominin-1 (Prom1/CD133), splice variant s2 (from UniProt O43490) K138Q
other: Arl13b / Prom1 ratio: 0.05
